Experimental data taken from patent publication US20230303675A1.

How the values were obtained:
[1] = target: human Ang2 (angiopoietin-2) (human) (UniProt O15123); experiment: BLI (Octet), scFv amine-coupled on AR2G biosensor, Ang2 in solution at 50, 40, 30, 20 nM
[2] = target: mouse Ang2 (angiopoietin-2) (mouse) (UniProt O35608); experiment: BLI (Octet), scFv amine-coupled on AR2G biosensor, Ang2 in solution
Chain of UniProt O35608 (O35608 19-496 limits assumed): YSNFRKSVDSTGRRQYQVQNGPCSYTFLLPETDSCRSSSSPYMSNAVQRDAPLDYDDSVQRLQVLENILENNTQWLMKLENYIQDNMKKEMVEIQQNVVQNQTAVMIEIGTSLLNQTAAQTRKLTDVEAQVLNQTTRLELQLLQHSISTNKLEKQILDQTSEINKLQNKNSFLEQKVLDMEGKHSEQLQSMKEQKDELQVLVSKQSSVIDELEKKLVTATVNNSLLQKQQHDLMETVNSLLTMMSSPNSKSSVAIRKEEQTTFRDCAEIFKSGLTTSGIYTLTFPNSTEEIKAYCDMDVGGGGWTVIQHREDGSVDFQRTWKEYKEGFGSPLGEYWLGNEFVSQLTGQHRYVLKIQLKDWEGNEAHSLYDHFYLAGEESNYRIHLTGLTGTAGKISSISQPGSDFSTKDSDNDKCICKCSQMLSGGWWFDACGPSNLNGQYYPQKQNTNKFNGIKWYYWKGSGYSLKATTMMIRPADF

Chain of UniProt O15123 (O15123 19-496 limits assumed): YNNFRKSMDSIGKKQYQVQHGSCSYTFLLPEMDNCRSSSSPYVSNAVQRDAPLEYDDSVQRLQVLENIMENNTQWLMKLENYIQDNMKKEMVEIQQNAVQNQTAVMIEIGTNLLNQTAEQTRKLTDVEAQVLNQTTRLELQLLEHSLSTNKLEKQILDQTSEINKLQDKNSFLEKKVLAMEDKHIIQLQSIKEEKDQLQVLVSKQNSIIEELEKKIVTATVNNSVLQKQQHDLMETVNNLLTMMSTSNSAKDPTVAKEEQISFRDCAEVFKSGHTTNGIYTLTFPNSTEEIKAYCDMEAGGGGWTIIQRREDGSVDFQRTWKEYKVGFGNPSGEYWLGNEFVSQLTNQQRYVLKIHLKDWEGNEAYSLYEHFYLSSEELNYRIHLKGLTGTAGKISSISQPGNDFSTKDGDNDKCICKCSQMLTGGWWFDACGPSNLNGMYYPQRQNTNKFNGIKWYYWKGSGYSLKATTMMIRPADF

Kd [1]: 0.313 nM
koff [1]: 0.000172 s⁻¹
kon [1]: 549000 M⁻¹ s⁻¹
Kd [2]: 0.231 nM
koff [2]: 0.000169 s⁻¹
kon [2]: 733000 M⁻¹ s⁻¹
B1: anti-Ang2 antibody clone O4 ScFv with N76S substitution in the light-chain variable region (scFv, part only; not given: Linker, domain order and His tag, V domains shown, not shown: another chain or arm of the molecule; small tags and cut ends)
VH: QVQLVESGGGLVKPGGSLRLSCAASGFTFSSYSMNWVRQAPGKGLEWVSSISASDGATYYADSVRGRFTISRDNSRSTLYLQMNSLRAEDTAVYYCAKTLAGYSGPMGGMDVWGQGTTVTVSS
VL: DIQMTQSPSSLSASVGDRVTITCRASRDISNYLAWYQQKPGKAPKSLIYGASNLQSGVSSQFSGSGSGTDFTLTISSLQPEDSATYYCQQYYSYPLTFGGGTKVDIK
